Assay results taken from US20120308513A1 (DENDREON, published 2012).

Experiments:
Experiment in all cases: cell-based or functional assay
HLA-DRB1*0402 = HLA-DRB1*0402 (human)
HLA-DRB1*040501 = HLA-DRB1*040501 (human)
HLA-DRB1*1302 = HLA-DRB1*1302 (human)
HLA-DRB1*0901 = HLA-DRB1*0901 (human)
HLA-DRB1*1102 = HLA-DRB1*1102 (human)
HLA-DRB1*0101 = HLA-DRB1*0101 (human)
HLA-DRB1*080101 = HLA-DRB1*080101 (human)
HLA-DRB1*1401 = HLA-DRB1*1401 (human)
HLA-DRB1*080201 = HLA-DRB1*080201 (human)
HLA-DRB1*0103 = HLA-DRB1*0103 (human)
HLA-DRB1*160201 = HLA-DRB1*160201 (human)
HLA-DRB1*0301 = HLA-DRB1*0301 (human)
HLA-DRB1*0701 = HLA-DRB1*0701 (human)
HLA-DRB1*1402 = HLA-DRB1*1402 (human)
HLA-DRB1*1301 = HLA-DRB1*1301 (human)
HLA-DRB1*0401 = HLA-DRB1*0401 (human)
HLA-DRB1*110401 = HLA-DRB1*110401 (human)
HLA-DRB1*1503 = HLA-DRB1*1503 (human)
HLA-DRB1*0302 = HLA-DRB1*0302 (human)
HLA-DRB1*1201 = HLA-DRB1*1201 (human)
HLA-DRB1*040301 = HLA-DRB1*040301 (human)
HLA-DRB1*0102 = HLA-DRB1*0102 (human)
HLA-DRB1*1104 = HLA-DRB1*1104 (human)
HLA-DRB1*1103 = HLA-DRB1*1103 (human)
HLA-DRB1*1101 = HLA-DRB1*1101 (human)

- IFNγ production by T cell clone HER500.23c21, HERp270-284 at 1 µg/mL presented by the homozygous EBV-LcL line (ELISA) (HLA-DRB1*0402): > 4000 pg/mL
- IFNγ production by T cell clone HER500.23c21, HERp270-284 at 1 µg/mL presented by the homozygous EBV-LcL line (ELISA) (HLA-DRB1*040501): > 4000 pg/mL
- IFNγ production by T cell clone HER500.23c21, HERp270-284 at 1 µg/mL presented by the homozygous EBV-LcL line (ELISA) (HLA-DRB1*1302): > 4000 pg/mL
- IFNγ production by T cell clone HER500.23c21, HERp270-284 at 1 µg/mL presented by the homozygous EBV-LcL line (ELISA) (HLA-DRB1*0901): > 4000 pg/mL
- IFNγ production by T cell clone HER500.23c21, HERp270-284 at 1 µg/mL presented by the homozygous EBV-LcL line (ELISA) (HLA-DRB1*1102): > 4000 pg/mL
- IFNγ production by T cell clone HER500.23c21, HERp270-284 at 1 µg/mL presented by the homozygous EBV-LcL line (ELISA) (HLA-DRB1*0101): > 4000 pg/mL
- IFNγ production by T cell clone HER500.23c21, HERp270-284 at 1 µg/mL presented by the homozygous EBV-LcL line (ELISA) (HLA-DRB1*080101): > 4000 pg/mL
- IFNγ production by T cell clone HER500.23c21, HERp270-284 at 1 µg/mL presented by the homozygous EBV-LcL line (ELISA) (HLA-DRB1*1401): > 4000 pg/mL
- IFNγ production by T cell clone HER500.23c21, HERp270-284 at 1 µg/mL presented by the homozygous EBV-LcL line (ELISA) (HLA-DRB1*080201): > 4000 pg/mL
- IFNγ production by T cell clone HER500.23c21, HERp270-284 at 1 µg/mL presented by the homozygous EBV-LcL line (ELISA) (HLA-DRB1*0103): > 4000 pg/mL
- IFNγ production by T cell clone HER500.23c21, HERp270-284 at 1 µg/mL presented by the homozygous EBV-LcL line (ELISA) (HLA-DRB1*160201): > 4000 pg/mL
- IFNγ production by T cell clone HER500.23c21, HERp270-284 at 1 µg/mL presented by the homozygous EBV-LcL line (ELISA) (HLA-DRB1*0301): > 4000 pg/mL
- IFNγ production by T cell clone HER500.23c21, HERp270-284 at 1 µg/mL presented by the homozygous EBV-LcL line (ELISA) (HLA-DRB1*0701): > 4000 pg/mL
- IFNγ production by T cell clone HER500.23c21, HERp270-284 at 1 µg/mL presented by the homozygous EBV-LcL line (ELISA) (HLA-DRB1*1402): > 4000 pg/mL
- IFNγ production by T cell clone HER500.23c21, HERp270-284 at 1 µg/mL presented by the homozygous EBV-LcL line (ELISA) (HLA-DRB1*1301): > 4000 pg/mL
- IFNγ production by T cell clone HER500.23c21, HERp270-284 at 1 µg/mL presented by the homozygous EBV-LcL line (ELISA) (HLA-DRB1*0401): > 4000 pg/mL
- IFNγ production by T cell clone HER500.23c21, HERp270-284 at 1 µg/mL presented by the homozygous EBV-LcL line (ELISA) (HLA-DRB1*110401): > 4000 pg/mL
- IFNγ production by T cell clone HER500.23c21, HERp270-284 at 1 µg/mL presented by the homozygous EBV-LcL line (ELISA) (HLA-DRB1*1503): > 4000 pg/mL
- IFNγ production by T cell clone HER500.23c21, HERp270-284 at 1 µg/mL presented by the homozygous EBV-LcL line (ELISA) (HLA-DRB1*0302): > 4000 pg/mL
- IFNγ production by T cell clone HER500.23c21, HERp270-284 at 1 µg/mL presented by the homozygous EBV-LcL line (ELISA) (HLA-DRB1*1201): > 4000 pg/mL
- IFNγ production by T cell clone HER500.23c21, HERp270-284 at 1 µg/mL presented by the homozygous EBV-LcL line (ELISA) (HLA-DRB1*040301): > 4000 pg/mL
- IFNγ production by T cell clone HER500.23c21, HERp270-284 at 1 µg/mL presented by the homozygous EBV-LcL line (ELISA) (HLA-DRB1*0102): > 4000 pg/mL
- IFNγ production by T cell clone HER500.23c21, HERp270-284 at 1 µg/mL presented by the homozygous EBV-LcL line (ELISA) (HLA-DRB1*1104): > 4000 pg/mL
- IFNγ production by T cell clone HER500.23c21, HERp270-284 at 1 µg/mL presented by the homozygous EBV-LcL line (ELISA) (HLA-DRB1*1103): > 4000 pg/mL
- IFNγ production by T cell clone HER500.23c21, HERp270-284 at 1 µg/mL presented by the homozygous EBV-LcL line (ELISA) (HLA-DRB1*1101): > 4000 pg/mL
Binder: ALVTYNTDTFESMPN [HER500 peptide #63 (HERp270-284)]
